Tests used:
[1] = molecular target: native human HER2 (human) (UniProt P04626); assay: cell-based or functional assay
[2] = molecular target: native human HER2 (human) (UniProt P04626); assay: inhibition of 125I-rHRGβ1 binding to MCF7 monolayers on ice; labeled ligand rHRGβ1

HRG stimulation of p180 tyrosine phosphorylation in MCF7 cells [1] | maximum inhibition of HRG binding [2] [%] | inhibition of cell proliferation of SK-BR-3 cells (crystal violet) [1] [%] | Substance
< 25 % of control | 74 |  | murine monoclonal antibody 2C4
 |  | 66 | murine monoclonal antibody 4D5
